T1: DFNB31_1, Q9P202
T1 sequence (Q9P202 135-233, limits assumed, looked up): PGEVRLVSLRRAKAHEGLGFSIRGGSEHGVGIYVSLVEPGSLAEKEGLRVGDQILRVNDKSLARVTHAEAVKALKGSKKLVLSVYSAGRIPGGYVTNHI

T2: DFNB31_2, Q9P202
T2 sequence (Q9P202 274-371, limits assumed, looked up): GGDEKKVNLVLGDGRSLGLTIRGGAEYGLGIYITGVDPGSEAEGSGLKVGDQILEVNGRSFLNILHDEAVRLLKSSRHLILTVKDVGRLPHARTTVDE

T3: DLG3_3, Q92796
T3 sequence (Q92796 374-475, limits assumed, looked up): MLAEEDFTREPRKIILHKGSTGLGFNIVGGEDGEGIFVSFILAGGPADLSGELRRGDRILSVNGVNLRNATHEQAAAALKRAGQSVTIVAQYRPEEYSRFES

T4: DVL3, Q92997
T4 sequence (Q92997 244-331, limits assumed, looked up): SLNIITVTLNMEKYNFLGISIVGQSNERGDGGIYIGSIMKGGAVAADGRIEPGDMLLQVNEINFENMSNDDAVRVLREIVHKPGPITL

T5: HTRA4, P83105
T5 sequence (P83105 378-476, limits assumed, looked up): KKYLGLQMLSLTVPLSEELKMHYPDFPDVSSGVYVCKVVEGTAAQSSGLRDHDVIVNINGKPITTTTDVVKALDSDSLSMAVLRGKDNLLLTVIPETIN

T6: LIN7B, Q9HAP6
T6 sequence (Q9HAP6 88-185, limits assumed, looked up): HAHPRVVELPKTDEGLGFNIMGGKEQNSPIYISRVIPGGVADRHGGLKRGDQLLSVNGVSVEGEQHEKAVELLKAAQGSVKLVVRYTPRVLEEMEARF

T7: MPDZ_10, O75970
T7 sequence (O75970 1624-1722, limits assumed, looked up): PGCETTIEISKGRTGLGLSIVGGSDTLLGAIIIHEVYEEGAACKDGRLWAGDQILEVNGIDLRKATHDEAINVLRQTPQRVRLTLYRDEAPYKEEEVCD

T8: NHERF3_1, Q5T2W1
T8 sequence (Q5T2W1 4-100, limits assumed, looked up): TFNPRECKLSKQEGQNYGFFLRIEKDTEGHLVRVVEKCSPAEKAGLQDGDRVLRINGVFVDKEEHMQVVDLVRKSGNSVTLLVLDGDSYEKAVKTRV

T9: RAPGEF6, Q8TEU7
T9 sequence (Q8TEU7 525-625, limits assumed, looked up): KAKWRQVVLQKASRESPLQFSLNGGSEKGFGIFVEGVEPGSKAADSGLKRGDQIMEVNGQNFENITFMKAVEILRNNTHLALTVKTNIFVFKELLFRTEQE

T10: SNTA1, Q13424
T10 sequence (Q13424 82-180, limits assumed, looked up): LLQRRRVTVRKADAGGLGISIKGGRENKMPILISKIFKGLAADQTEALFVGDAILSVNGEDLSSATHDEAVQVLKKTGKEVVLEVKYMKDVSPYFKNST

T11: SNTG1, Q9NSN8
T11 sequence (Q9NSN8 52-150, limits assumed, looked up): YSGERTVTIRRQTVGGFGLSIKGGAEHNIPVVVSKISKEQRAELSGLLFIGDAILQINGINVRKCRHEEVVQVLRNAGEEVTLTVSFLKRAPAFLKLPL

T12: SNTG2, Q9NY99
T12 sequence (Q9NY99 68-166, limits assumed, looked up): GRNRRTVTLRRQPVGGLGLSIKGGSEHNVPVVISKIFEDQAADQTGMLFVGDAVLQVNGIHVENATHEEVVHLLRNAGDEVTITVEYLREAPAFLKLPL

T13: TIAM2, Q8IVF5
T13 sequence (Q8IVF5 885-986, limits assumed, looked up): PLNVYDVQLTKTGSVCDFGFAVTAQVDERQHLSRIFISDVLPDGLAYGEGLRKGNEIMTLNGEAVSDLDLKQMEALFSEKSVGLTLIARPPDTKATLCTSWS


molecular target: T1, DFNB31_1, Q9P202; assay: holdup assay; set-up: key: below the threshold = too weak to quantify, mostly under pKd 3.1 to 4; details: plain residues with an end cap or a label only (N-terminal biotin on a linker: ado-ado)

pKd	Binder
below the threshold	SKQFDKNAYV [CLDN10, P78369]
4.21	VYEVPVETKF [SLC26A3, P40879]

molecular target: T2, DFNB31_2, Q9P202; assay: holdup assay; set-up: key: below the threshold = too weak to quantify, mostly under pKd 3.1 to 4; details: plain residues with an end cap or a label only (N-terminal biotin on a linker: ado-ado)

pKd	Binder
below the threshold	SKQFDKNAYV [CLDN10, P78369]
below the threshold	VYEVPVETKF [SLC26A3, P40879]

molecular target: T3, DLG3_3, Q92796; assay: holdup assay; set-up: key: below the threshold = too weak to quantify, mostly under pKd 3.1 to 4; details: plain residues with an end cap or a label only (N-terminal biotin on a linker: ado-ado)

pKd	Binder
below the threshold	SKQFDKNAYV [CLDN10, P78369]
below the threshold	VYEVPVETKF [SLC26A3, P40879]

molecular target: DLG5_1, Q8TDM6; assay: holdup assay; set-up: key: below the threshold = too weak to quantify, mostly under pKd 3.1 to 4; details: plain residues with an end cap or a label only (N-terminal biotin on a linker: ado-ado)
Sequence (Q8TDM6 617-713): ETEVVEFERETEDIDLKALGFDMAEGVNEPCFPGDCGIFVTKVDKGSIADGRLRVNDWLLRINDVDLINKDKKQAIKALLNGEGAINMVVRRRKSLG

pKd	Binder
below the threshold	SKQFDKNAYV [CLDN10, P78369]
below the threshold	VYEVPVETKF [SLC26A3, P40879]

molecular target: T4, DVL3, Q92997; assay: holdup assay; set-up: key: below the threshold = too weak to quantify, mostly under pKd 3.1 to 4; details: plain residues with an end cap or a label only (N-terminal biotin on a linker: ado-ado)

pKd	Binder
below the threshold	SKQFDKNAYV [CLDN10, P78369]
below the threshold	VYEVPVETKF [SLC26A3, P40879]

molecular target: FRMPD2_3, Q68DX3; assay: holdup assay; set-up: key: below the threshold = too weak to quantify, mostly under pKd 3.1 to 4; details: plain residues with an end cap or a label only (N-terminal biotin on a linker: ado-ado)
Sequence (Q68DX3 1073-1166): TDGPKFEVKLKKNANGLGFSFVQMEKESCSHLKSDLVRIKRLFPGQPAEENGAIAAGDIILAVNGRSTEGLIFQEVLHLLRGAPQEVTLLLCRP

pKd	Binder
below the threshold	SKQFDKNAYV [CLDN10, P78369]
3.52	VYEVPVETKF [SLC26A3, P40879]

molecular target: GORASP2, Q9H8Y8; assay: holdup assay; set-up: key: below the threshold = too weak to quantify, mostly under pKd 3.1 to 4; details: plain residues with an end cap or a label only (N-terminal biotin on a linker: ado-ado)

pKd	Binder
below the threshold	SKQFDKNAYV [CLDN10, P78369]
below the threshold	VYEVPVETKF [SLC26A3, P40879]

molecular target: GRIP2_5, Q9C0E4; assay: holdup assay; set-up: key: below the threshold = too weak to quantify, mostly under pKd 3.1 to 4; details: plain residues with an end cap or a label only (N-terminal biotin on a linker: ado-ado)
Sequence (Q9C0E4 544-642): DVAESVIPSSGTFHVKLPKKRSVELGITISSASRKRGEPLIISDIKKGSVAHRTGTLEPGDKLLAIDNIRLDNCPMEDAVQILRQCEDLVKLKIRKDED

pKd	Binder
below the threshold	SKQFDKNAYV [CLDN10, P78369]
below the threshold	VYEVPVETKF [SLC26A3, P40879]

molecular target: T5, HTRA4, P83105; assay: holdup assay; set-up: key: below the threshold = too weak to quantify, mostly under pKd 3.1 to 4; details: plain residues with an end cap or a label only (N-terminal biotin on a linker: ado-ado)

pKd	Binder
below the threshold	SKQFDKNAYV [CLDN10, P78369]
below the threshold	VYEVPVETKF [SLC26A3, P40879]

molecular target: IL16_1, Q14005; assay: holdup assay; set-up: key: below the threshold = too weak to quantify, mostly under pKd 3.1 to 4; details: plain residues with an end cap or a label only (N-terminal biotin on a linker: ado-ado)
Sequence (Q14005 210-306): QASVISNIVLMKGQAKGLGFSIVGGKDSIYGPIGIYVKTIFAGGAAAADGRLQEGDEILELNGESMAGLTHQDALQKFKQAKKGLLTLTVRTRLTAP

pKd	Binder
below the threshold	SKQFDKNAYV [CLDN10, P78369]
below the threshold	VYEVPVETKF [SLC26A3, P40879]

molecular target: IL16_4, Q14005; assay: holdup assay; set-up: key: below the threshold = too weak to quantify, mostly under pKd 3.1 to 4; details: plain residues with an end cap or a label only (N-terminal biotin on a linker: ado-ado)
Sequence (Q14005 1229-1329): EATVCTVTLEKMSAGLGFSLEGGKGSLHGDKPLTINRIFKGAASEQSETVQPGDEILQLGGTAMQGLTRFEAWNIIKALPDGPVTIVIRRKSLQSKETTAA

pKd	Binder
below the threshold	SKQFDKNAYV [CLDN10, P78369]
below the threshold	VYEVPVETKF [SLC26A3, P40879]

molecular target: Inadl_8, Q8NI35; assay: holdup assay; set-up: key: below the threshold = too weak to quantify, mostly under pKd 3.1 to 4; details: plain residues with an end cap or a label only (N-terminal biotin on a linker: ado-ado)
Sequence (Q8NI35 1425-1530): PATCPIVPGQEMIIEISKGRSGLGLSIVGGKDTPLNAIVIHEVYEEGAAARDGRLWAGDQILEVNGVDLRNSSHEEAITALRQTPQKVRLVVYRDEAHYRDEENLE

pKd	Binder
3.5	SKQFDKNAYV [CLDN10, P78369]
below the threshold	VYEVPVETKF [SLC26A3, P40879]

molecular target: LIMK2, P53671; assay: holdup assay; set-up: key: below the threshold = too weak to quantify, mostly under pKd 3.1 to 4; details: plain residues with an end cap or a label only (N-terminal biotin on a linker: ado-ado)
Sequence (P53671 143-248): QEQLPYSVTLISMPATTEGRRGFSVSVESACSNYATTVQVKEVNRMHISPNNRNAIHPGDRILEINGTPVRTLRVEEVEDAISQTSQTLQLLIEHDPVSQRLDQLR

pKd	Binder
below the threshold	SKQFDKNAYV [CLDN10, P78369]
below the threshold	VYEVPVETKF [SLC26A3, P40879]

molecular target: T6, LIN7B, Q9HAP6; assay: holdup assay; set-up: key: below the threshold = too weak to quantify, mostly under pKd 3.1 to 4; details: plain residues with an end cap or a label only (N-terminal biotin on a linker: ado-ado)

pKd	Binder
below the threshold	SKQFDKNAYV [CLDN10, P78369]
4.21	VYEVPVETKF [SLC26A3, P40879]

molecular target: T7, MPDZ_10, O75970; assay: holdup assay; set-up: key: below the threshold = too weak to quantify, mostly under pKd 3.1 to 4; details: plain residues with an end cap or a label only (N-terminal biotin on a linker: ado-ado)

pKd	Binder
below the threshold	SKQFDKNAYV [CLDN10, P78369]
below the threshold	VYEVPVETKF [SLC26A3, P40879]

molecular target: T8, NHERF3_1, Q5T2W1; assay: holdup assay; set-up: key: below the threshold = too weak to quantify, mostly under pKd 3.1 to 4; details: plain residues with an end cap or a label only (N-terminal biotin on a linker: ado-ado)

pKd	Binder
4.85	SKQFDKNAYV [CLDN10, P78369]
5.51	VYEVPVETKF [SLC26A3, P40879]

molecular target: NOS1, P29475; assay: holdup assay; set-up: key: below the threshold = too weak to quantify, mostly under pKd 3.1 to 4; details: plain residues with an end cap or a label only (N-terminal biotin on a linker: ado-ado)
Sequence (P29475 9-101): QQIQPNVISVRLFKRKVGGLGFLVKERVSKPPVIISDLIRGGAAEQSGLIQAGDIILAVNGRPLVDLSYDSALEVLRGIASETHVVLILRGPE

pKd	Binder
3.61	SKQFDKNAYV [CLDN10, P78369]
3.72	VYEVPVETKF [SLC26A3, P40879]

molecular target: PARD3_3, Q8TEW0; assay: holdup assay; set-up: key: below the threshold = too weak to quantify, mostly under pKd 3.1 to 4; details: plain residues with an end cap or a label only (N-terminal biotin on a linker: ado-ado)
Sequence (Q8TEW0 582-685): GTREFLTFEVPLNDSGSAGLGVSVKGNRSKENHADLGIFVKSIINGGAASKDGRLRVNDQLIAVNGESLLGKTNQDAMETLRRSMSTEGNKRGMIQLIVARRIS

pKd	Binder
below the threshold	SKQFDKNAYV [CLDN10, P78369]
below the threshold	VYEVPVETKF [SLC26A3, P40879]

molecular target: PDLIM1, O00151; assay: holdup assay; set-up: key: below the threshold = too weak to quantify, mostly under pKd 3.1 to 4; details: plain residues with an end cap or a label only (N-terminal biotin on a linker: ado-ado)
Sequence (O00151 1-87): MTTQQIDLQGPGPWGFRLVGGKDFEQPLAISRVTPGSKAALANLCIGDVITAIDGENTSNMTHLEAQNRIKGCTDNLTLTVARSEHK

pKd	Binder
below the threshold	SKQFDKNAYV [CLDN10, P78369]
below the threshold	VYEVPVETKF [SLC26A3, P40879]

molecular target: T9, RAPGEF6, Q8TEU7; assay: holdup assay; set-up: key: below the threshold = too weak to quantify, mostly under pKd 3.1 to 4; details: plain residues with an end cap or a label only (N-terminal biotin on a linker: ado-ado)

pKd	Binder
below the threshold	SKQFDKNAYV [CLDN10, P78369]
below the threshold	VYEVPVETKF [SLC26A3, P40879]

molecular target: SCRIB_1, Q14160; assay: holdup assay; set-up: key: below the threshold = too weak to quantify, mostly under pKd 3.1 to 4; details: plain residues with an end cap or a label only (N-terminal biotin on a linker: ado-ado)
Sequence (Q14160 718-814): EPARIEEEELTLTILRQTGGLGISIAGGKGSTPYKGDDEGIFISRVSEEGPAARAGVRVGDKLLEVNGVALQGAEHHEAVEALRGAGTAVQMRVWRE

pKd	Binder
below the threshold	SKQFDKNAYV [CLDN10, P78369]
4.18	VYEVPVETKF [SLC26A3, P40879]

molecular target: T10, SNTA1, Q13424; assay: holdup assay; set-up: key: below the threshold = too weak to quantify, mostly under pKd 3.1 to 4; details: plain residues with an end cap or a label only (N-terminal biotin on a linker: ado-ado)

pKd	Binder
3.55	SKQFDKNAYV [CLDN10, P78369]
below the threshold	VYEVPVETKF [SLC26A3, P40879]

molecular target: T11, SNTG1, Q9NSN8; assay: holdup assay; set-up: key: below the threshold = too weak to quantify, mostly under pKd 3.1 to 4; details: plain residues with an end cap or a label only (N-terminal biotin on a linker: ado-ado)

pKd	Binder
below the threshold	SKQFDKNAYV [CLDN10, P78369]
below the threshold	VYEVPVETKF [SLC26A3, P40879]

molecular target: T12, SNTG2, Q9NY99; assay: holdup assay; set-up: key: below the threshold = too weak to quantify, mostly under pKd 3.1 to 4; details: plain residues with an end cap or a label only (N-terminal biotin on a linker: ado-ado)

pKd	Binder
below the threshold	SKQFDKNAYV [CLDN10, P78369]
below the threshold	VYEVPVETKF [SLC26A3, P40879]

molecular target: T13, TIAM2, Q8IVF5; assay: holdup assay; set-up: key: below the threshold = too weak to quantify, mostly under pKd 3.1 to 4; details: plain residues with an end cap or a label only (N-terminal biotin on a linker: ado-ado)

pKd	Binder
below the threshold	SKQFDKNAYV [CLDN10, P78369]
3.98	VYEVPVETKF [SLC26A3, P40879]

— paper PMC9482650, “Quantitative fragmentomics allow affinity mapping of interactomes” (Nature Communications, 2022)
